Test results reported in article PMC10902665, “Stable structures or PABP1 loading protects cellular and viral RNAs against ISG20-mediated decay”.

What was measured:
[1] = molecular target: ISG20 WT (UniProt Q96AZ6 1-181); assay: EMSA; 10 mM Mn2+; ISG20 50-1600 nM, RNA 10 nM; fitted curve, no Kd printed in the material; ISG20 EMSA: 50 mM Tris-HCl pH 7.4, 150 mM NaCl, 5 mM b-mercaptoethanol, 10 mM MnCl2, 0.1 ug/ul BSA, 5% glycerol, 30 C 30 min; PABP1 EMSA: 25 mM Tris-HCl pH 7.4, 5 mM MgCl2, 100 mM NaCl, 2.5 mM DTT, 0.2 ug/ul BSA, 10% glycerol, 37 C 15 min; details: protein: recombinant; tags: N-terminal 6xHis; label: 5' 32P; hairpin
[2] = molecular target: PABP1 (poly(A)-binding protein 1) (UniProt P11940 1-636); assay: EMSA; 5 mM Mg2+; PABP1 50-500 nM, RNA 10 nM; ISG20 EMSA: 50 mM Tris-HCl pH 7.4, 150 mM NaCl, 5 mM b-mercaptoethanol, 10 mM MnCl2, 0.1 ug/ul BSA, 5% glycerol, 30 C 30 min; PABP1 EMSA: 25 mM Tris-HCl pH 7.4, 5 mM MgCl2, 100 mM NaCl, 2.5 mM DTT, 0.2 ug/ul BSA, 10% glycerol, 37 C 15 min; details: protein: recombinant; tags: His; label: 5' 32P; single strand
Chain of PABP1 (poly(A)-binding protein 1) (P11940 whole entry): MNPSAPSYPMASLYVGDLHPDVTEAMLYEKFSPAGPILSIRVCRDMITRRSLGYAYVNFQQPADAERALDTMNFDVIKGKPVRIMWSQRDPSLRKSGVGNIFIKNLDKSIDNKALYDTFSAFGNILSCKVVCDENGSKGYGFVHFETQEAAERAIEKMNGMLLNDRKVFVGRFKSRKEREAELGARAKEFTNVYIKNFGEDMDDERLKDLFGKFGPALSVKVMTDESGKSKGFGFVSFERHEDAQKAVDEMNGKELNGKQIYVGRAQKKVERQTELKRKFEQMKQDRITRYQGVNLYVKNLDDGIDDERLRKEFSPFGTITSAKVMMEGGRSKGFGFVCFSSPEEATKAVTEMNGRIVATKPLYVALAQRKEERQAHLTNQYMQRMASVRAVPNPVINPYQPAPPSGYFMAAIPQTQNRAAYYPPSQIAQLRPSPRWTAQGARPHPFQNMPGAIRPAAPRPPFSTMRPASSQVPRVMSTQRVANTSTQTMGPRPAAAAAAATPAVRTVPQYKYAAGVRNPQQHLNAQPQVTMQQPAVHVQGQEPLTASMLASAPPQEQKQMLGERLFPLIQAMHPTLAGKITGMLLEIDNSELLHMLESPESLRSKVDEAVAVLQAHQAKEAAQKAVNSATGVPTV

Chain of ISG20 WT (Q96AZ6 whole entry): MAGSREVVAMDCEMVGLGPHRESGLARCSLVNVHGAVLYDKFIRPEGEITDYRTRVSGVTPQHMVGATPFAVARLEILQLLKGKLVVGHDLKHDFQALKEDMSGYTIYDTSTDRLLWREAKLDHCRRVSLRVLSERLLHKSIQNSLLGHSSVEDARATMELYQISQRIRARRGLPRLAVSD

| Binder | binding result [1] | binding result [2] |
| --- | --- | --- |
| GGGGCCAGAUCUGAGCCUGGGAGCUCUCUGGCCC (structured_RNA) [TAR-9SL] | binds |  |
| ACACACACACACACACACACAAAAAAAAAAAAAAAAAAAA (ssRNA) [(AC)10A20, poly(A)-containing linear RNA] |  | binds |
